Results from US20130295010A1, “HER2 BINDING PEPTIDES LABELLED WITH A 18F - CONTAINING ORGANOSILICON COMPOUND” (priority 2010, published 2013).

How the values were obtained:
[1] = system: target-expressing SKOV3 tumors; details: mouse, in vivo
Experimental: In vivo studies were carried out with female CD-1 nude mice (Charles River Labs, Hopkinton, Mass.) with an age range between 6 and 15 weeks. Mice were housed in a ventilated rack with food and water ad libitum and a standard 12 hour day-night lighting cycle. For xenografts, animals were injected with 100 μl of cells in PBS. Cells were implanted subcutaneously in the right hindquarter. Implantation was performed under isoflurane anesthesia. For SKOV3, between 3×10^6 to 4×10^6 cells were implanted in each mouse. Under these conditions, useable tumors (100 to 300 μg) were obtained in 3 to 4 weeks in greater than 80% of animals injected.
Mice were given tail-vein injections of ˜1 μg of ^99mTc-labeled polypeptides (˜3 μCi/1 μg). […] Three mice were euthanized at each timepoint and tissues of interest dissected and counted on a Perkin Elmer Wallac Wizard 1480 Gamma Counter. […] Urine from cages was pooled with the bladder and also counted. The remaining tissues were counted and the sum of all tissues plus urine for each animal was summed to provide the total injected dose. The % injected dose for each organ was determined based on this total, and organs were weighed for determination of the % injected dose per gram, (% ID/g). […]
Mice were given tail-vein injections of ˜1 ug of ^99mTc-labeled polypeptides (˜10 μCi/1 μg). […] Urine from cages was pooled with the bladder and also counted. […]

[2] = mouse, in vivo, iv, 3 MBq, 1.5 h
Experimental: Following intravenous injection of 3 MBq of activity (2.5 MBq for the 2 min time point), animals were sacrificed at 2, 90, 120 and 180 min post injection and retention of radioactivity was assessed in key organs.

Substance	activity in the kidneys [1] [ID/organ]	kidney retention [2] [% ID]
Z02891 (SEQ. ID No. 2) ^18F-fluorobenzyl oxime: Z02891-ONH2 (Mal-AO linker on C-terminal cysteine) conjugated with [18F]4-fluorobenzaldehyde	0.95±0.07	–
[18F]AlF-NOTA(COOH)-2-Z02891(SEQ ID No. 2) [Compound 5]	–	70.3
